Measurements from patent publication US20220184120A1 (MINERVA BIOTECHNOLOGIES, published 2022).
Numbering of substitutions follows the chain as printed.

T1: MUC1* (cleaved MUC1) as it occurs on MUC1/MUC1* positive cancer cell lines (human, UniProt P15941 1110-1255, limits assumed)
T1 construct: the cell line is named under assay; also called MUC1* positive cancer cells; ZR-75-1 aka 1500
T1 sequence (looked up): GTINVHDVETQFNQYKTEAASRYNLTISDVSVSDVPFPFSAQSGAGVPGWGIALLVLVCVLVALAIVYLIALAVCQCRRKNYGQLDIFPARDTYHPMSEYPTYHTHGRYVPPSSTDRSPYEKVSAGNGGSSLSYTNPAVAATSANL

T2: PSMGFR peptide (Primary Sequence of the MUC1 Growth Factor Receptor)
T2 construct: synthetic peptide immobilised on ELISA plates; also called MUC1* peptide; MUC1* extra cellular domain peptide
T2 peptide: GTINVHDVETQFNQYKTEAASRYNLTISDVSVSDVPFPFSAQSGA

T3: N-10 peptide (PSMGFR minus 10 amino acids from the N-terminus)
T3 construct: also called N-10 PSMGFR; PSMGFR N-10
T3 peptide: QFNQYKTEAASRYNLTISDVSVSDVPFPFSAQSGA

T4: MUC1 transmembrane cleavage product after cleavage of full-length MUC1 by MMP9 (UniProt P15941 1110-1255)
T4 construct: on HCT-MUC1-18 (or T47D) cells treated with MMP9; also called MUC1* generated by cleavage by MMP9; MMP9 cleaved form of MUC1
T4 sequence (looked up): T1 sequence (looked up)

T5: NME7-AB (recombinant) (Homo sapiens (Human), UniProt Q9Y5B8 92-376)
T5 construct: the entry ends in a His tag; also called NM23-H7
T5 sequence: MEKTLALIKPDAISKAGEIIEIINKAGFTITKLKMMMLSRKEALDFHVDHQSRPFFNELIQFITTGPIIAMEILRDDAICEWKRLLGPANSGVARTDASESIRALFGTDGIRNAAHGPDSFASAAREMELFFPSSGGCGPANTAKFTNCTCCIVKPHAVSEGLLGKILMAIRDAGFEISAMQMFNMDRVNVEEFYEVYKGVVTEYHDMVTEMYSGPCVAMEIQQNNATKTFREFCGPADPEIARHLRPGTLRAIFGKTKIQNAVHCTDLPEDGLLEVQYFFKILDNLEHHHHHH

T6: N+20/C-27 peptide (20 amino acids added onto the N-terminus and 27 deleted from the C-terminus of PSMGFR)
T6 peptide: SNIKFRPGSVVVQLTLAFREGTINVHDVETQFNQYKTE

T7: N+9/C-9 peptide (9 amino acids added onto the N-terminus and 9 deleted from the C-terminus of PSMGFR)
T7 peptide: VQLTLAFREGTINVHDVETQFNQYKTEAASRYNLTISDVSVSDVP

T8: N-30 peptide
T8 peptide: SVSDVPFPFSAQSGA

T9: N-19 peptide
T9 peptide: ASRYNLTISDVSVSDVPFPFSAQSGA

T10: N-26 peptide
T10 peptide: ISDVSVSDVPFPFSAQSGA

T11: N-10/C-5 peptide
T11 peptide: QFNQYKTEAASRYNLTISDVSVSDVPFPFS

T12: N-19/C-5 peptide
T12 peptide: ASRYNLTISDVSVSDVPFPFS

B1: 45C11 mouse monoclonal antibody (antibody, V domains shown)
VH: EVQLQQSGADLVKPGASVKLSCTASGFNIKDTFMHWVKQRPEQGLEWIGRIDPANGNTKYDPKFQGKATITADTSSNTAYLQLSSLTSEDTAVYYCAKPYGNYGYYYALDYWGQGTSVTVSS
VL: DVQITQSPSYLAASPGETITINCRASKSISKYLAWYQEKPGKTNKLLIYSGSTLQSGIPSRFSGSGSGTDFTLTISSLEPEDFAMYYCQQHNEFPWTFGGGTKLEIK
notes: raised against N+20/C-27; also called N+20/C-27 antibody 45C11
B2: C-10 peptide (PSMGFR minus 10 amino acids from the C-terminus) (peptide)
peptide: GTINVHDVETQFNQYKTEAASRYNLTISDVSVSDV
notes: also called C-10 PSMGFR; PSMGFR C-10
B3: 1E4 mouse monoclonal antibody (antibody, V domains shown)
VH: QVQLQQSGAELVRPGSSVKISCKASGYAFSTYWMNWVKQRPGQGLEWIGQIYPGDSDTNYNGKFKGKATLTADKSSNTAYMQLSSLTSEDSAVFFCARGNHASMDYWGQGTSVTVSS
VL: DVVMTQTPLSLPVSLGDQASISCRSSQSLVHSNGNTYLHWYLQKPGQSPKLLIYKVSNRFSGVPDRFSGSGSGTDFTLKISRVEAEDLGVYFCSQKTHVPWTFGGGTKLEIK
notes: raised against N+20/C-27; also called MN-1E4; N+20/C-27 antibody 1E4
B4: 8A9 mouse monoclonal antibody (antibody, V domains shown)
VH: EVELVESGGGLVQPGGSLRLSCATSGFTFTDHYMSWVRQPPGKALEWLGFIRNKANGYTTEYSASVKGRFTISRDNSQSILYLQMKTLRTEDSATYYCARPSDWDSWFAYWGQGTLVTVSA
VL: B3 VL with V3L, L29I, H39D, K55R, V90L, F92Y, S94F, K96G, T97S, T102A
notes: raised against N+9/C-9; also called N+9/C-9 antibody 8A9
B5: 39H5 mouse monoclonal antibody (antibody, V domains shown)
VH: QIQLVQSGPELKKPGETVKISCKASGYTFTNYGMNWVKQAPGKGLKWMGWINTYTGEPTYVGDFKGRFAFSLETSASTAYLQINNLKNEDTATYFCVRGIHGYVDYWGQGTTLTVSS
VL: B3 VL with V3L, L29I, S32R, H39E, F92Y, S94F, K96G, T97S, V99L
notes: raised against N+9/C-9; also called N+9/C-9 antibody 39H5
B6: 3C5 mouse monoclonal antibody (antibody, V domains shown)
VH: QIQLVQSGPELKKPGETVKISCKASGYTFTNYGMNWVKQAPGKGLKWMGWINTYTGKPTYADDFKGRFAFSLETSASTAYLQINNLKNEDTATYFCARGGLDGYYGYWGQGTTLTVSS
VL: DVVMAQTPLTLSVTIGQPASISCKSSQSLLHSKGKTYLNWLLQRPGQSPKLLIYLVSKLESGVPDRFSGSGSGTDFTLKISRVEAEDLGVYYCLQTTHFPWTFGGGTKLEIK
notes: raised against N+9/C-9; also called N+9/C-9 antibody 3C5
B7: humanized MN-C2 scFv (scFv)
scFv: EVQLVESGGGLVKPGGSLRLSCAASGFTFSGYAMSWVRQAPGKGLEWVSTISSGGTYIYYPDSVKGRFTISRDNAKNSLYLQMNSLRAEDTAVYYCARLGGDNYYEYFDVWGKGTTVTVSSGGGGSGGGGSGGGGSDIVLTQSPASLAVSPGQRATITCRASKSVSTSGYSYMHWYQQKPGQPPKLLIYLASNLESGVPARFSGSGSGTDFTLTINPVEANDTANYYCQHSRELPFTFGGGTKVEIKRT
notes: also called huMN-C2scFv; huMNC2scFv; not shown: 6xHis tag detected with Anti-Penta-His antibody

Tests used:
[1] = target: T1, MUC1* (cleaved MUC1) as it occurs on …; experiment: flow cytometry, panel of cancer cell lines (FIGS. 80-87)
[2] = target: T2, PSMGFR peptide (Primary Sequence of the …); experiment: ELISA (FIG. 65A)
From the text: (§1) The antibodies being tested were derived from animals immunized with the N+20/C−27 peptide. The first selection criteria was to confirm that the antibodies bound to the immunizing N+20/C−27 peptide. […] Although these antibodies were raised against the N+20/C−27 peptide, all but one, 45C11, still bind to the PSMGFR peptide. […] 1E4 was able to bind to the N+20/C−27 peptide, the PSMGFR and the N−10 peptide, consistent with the idea that its epitope must lie within the […] sequence. […] The color of the bars for each antibody in the ELISA graph are color coded to match the deductive cognate sequence, or a portion thereof, of that antibody.
(§2) This same ELISA assay was performed on the antibodies of the invention (FIG. 64-66 and FIG. 201). Note that only 20A10 exactly matches the binding profile of MNC2 and MNE6. 25E6, 28F9 and 18G12 are all able to bind to the N−10 peptide. 18B4 is the only antibody raised against the PSMGFR peptide that requires the 10 most N-terminal amino acids of the peptide. The color of the bars for each antibody in the ELISA graph are color coded to match the deductive cognate sequence, or a portion thereof, of that antibody. In addition, another set of antibodies was assayed by ELISA (FIG. 201). Of this set, B12, B2, B7, B9, 8C7F3, and H11 bound to the PSMGFR peptide, bound to the N−10 peptide, but not to the C−10 peptide (FIG. 201).

[3] = target: T3, N-10 peptide (PSMGFR minus 10 amino …); experiment: ELISA
[4] = target: T4, MUC1 transmembrane cleavage product …; experiment: flow cytometry, HCT-MUC1-18 cells + enzyme (FIG. 75K)
Protocol: (§3) Antibodies generated by immunization with PSMGFR, N+20/C−27, or N+9/C−9 were tested for their ability to recognize MUC1 after it is cleaved by MMP9. […] To HCT-MUC1-18 cells was added either a catalytically active MMP9 or MMP2. The enzymes, added over a range of concentrations, were incubated with the cells for 24 hours. The resultant cells were then incubated with the various antibodies and analyzed by FACS to determine which bound to a MUC1 cleavage product produced by cleavage by MMP9 (FIG. 75A-75N). […] Each bar graph is labeled with both the name of the antibody used in that assay and its cognate epitope. The order of the graphs from right to left corresponds to the distance from the cell surface of the antibody's cognate epitope. […] For the greatest degree of cancer specificity, the antibody should recognize a conformational epitope of a MUC1 cleavage product created when MUC1 is cleaved by MMP9.

dimeric NME1 = target: T13, dimeric NME1 (human, UniProt P15531 1-152, limits assumed); experiment: ELISA (FIG. 2D)
T13 construct: also called NM23-H1 dimers; dimeric NM23-H1
T13 sequence (P15531 whole entry): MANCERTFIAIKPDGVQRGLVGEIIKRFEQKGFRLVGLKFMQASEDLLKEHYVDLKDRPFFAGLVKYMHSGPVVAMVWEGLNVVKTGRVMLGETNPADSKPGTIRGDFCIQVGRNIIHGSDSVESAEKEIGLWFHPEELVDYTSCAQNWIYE
Protocol: (§4) FIGS. 2A-2I show results of ELISA assays. MUC1* peptides PSMGFR, PSMGFR minus 10 amino acids from the N-terminus aka N−10, or PSMGFR minus 10 amino acids from the C-terminus, aka C−10 are immobilized on the plate and the following are assayed for binding: NME7-AB (FIG. 2A), MN-C2 monoclonal antibody (FIG. 2B), MN-E6 monoclonal antibody (FIG. 2C), or dimeric NME1 (FIG. 2D). […] MUC1* peptides PSMGFR minus 10 amino acids from the N-terminus aka N−10, or PSMGFR minus 10 amino acids from the C-terminus, aka C−10, are immobilized on the plate and the following are assayed for binding: MN-C3 (FIG. 2E) and MN-C8 (FIG. 2F).

NME7-AB (recombinant) = target: T5, NME7-AB (recombinant); experiment: ELISA (FIG. 2A)
Protocol: as §4

[5] = target: T6, N+20/C-27 peptide (20 amino acids added …); experiment: ELISA (FIG. 65A)
From the text: as §1, §2

[6] = target: T2, PSMGFR peptide (Primary Sequence of the …); experiment: ELISA (FIG. 65)
[7] = target: B2; experiment: ELISA
[8] = target: T4, MUC1 transmembrane cleavage product …; experiment: flow cytometry, HCT-MUC1-18 cells + enzyme (FIG. 75L)
Protocol: as §3

[9] = target: T7, N+9/C-9 peptide (9 amino acids added …); experiment: ELISA (FIG. 66)
N-30 peptide = target: T8, N-30 peptide; experiment: ELISA (FIG. 69)
Protocol: (§5) In order to further refine the epitopes to which each antibody binds, a series of smaller peptides derived from the PSMGFR sequence were synthesized: N−30 (SEQ ID NO:7), N−26 (SEQ ID NO:6), N−19 (SEQ ID NO:4), N−10/C−5 (SEQ ID NO:8), N−19/C−5 (SEQ ID NO:9). Each of the antibodies was tested in an ELISA assay for their ability to bind to this refined set of peptides, plus PSMGFR, N−10 and C−10 peptides (FIG. 67-69).

[10] = target: T2, PSMGFR peptide (Primary Sequence of the …); experiment: ELISA (FIG. 69)
Protocol: as §5

N-19 peptide = target: T9, N-19 peptide; experiment: ELISA (FIG. 69)
Protocol: as §5

[11] = target: T3, N-10 peptide (PSMGFR minus 10 amino …); experiment: ELISA (FIG. 69)
Protocol: as §5

[12] = target: B2; experiment: ELISA (FIG. 69)
Protocol: as §5

N-26 peptide = target: T10, N-26 peptide; experiment: ELISA (FIG. 69)
Protocol: as §5

N-10/C-5 peptide = target: T11, N-10/C-5 peptide; experiment: ELISA (FIG. 69)
Protocol: as §5

N-19/C-5 peptide = target: T12, N-19/C-5 peptide; experiment: ELISA (FIG. 69)
Protocol: as §5

[13] = target: T7, N+9/C-9 peptide (9 amino acids added …); experiment: ELISA
[14] = target: T7, N+9/C-9 peptide (9 amino acids added …); experiment: ELISA (FIG. 66A)
[15] = target: B2; experiment: ELISA (recap in IHC legend)
[16] = target: T2, PSMGFR peptide (Primary Sequence of the …); experiment: ELISA, PSMGFR peptide on plate (FIG. 5)
Protocol: Humanized MN-C2 scFv is then incubated with the surface, washed and detected according to standard methods.

Binder: B1
binding result [1]: no binding | binding result [2]: no binding | binding result [3]: no binding | binding result [4]: no binding

Binder: B2
binding result (dimeric NME1): no binding | binding result (NME7-AB (recombinant)): no binding

Binder: B3
binding result [5]: binds | binding result [6]: binds | binding result [3]: binds | binding result [7]: binds

Binder: B4
binding result [1]: no binding | binding result [8]: no binding | binding result [9]: binds | binding result (N-30 peptide): no binding | binding result [10]: no binding | binding result (N-19 peptide): no binding | binding result [11]: no binding | binding result [12]: no binding | binding result (N-26 peptide): no binding | binding result (N-10/C-5 peptide): no binding | binding result (N-19/C-5 peptide): no binding

Binder: B5
binding result [13]: binds | binding result (N-30 peptide): no binding | binding result (N-19 peptide): no binding | binding result [12]: no binding | binding result (N-26 peptide): no binding | binding result (N-10/C-5 peptide): no binding | binding result (N-19/C-5 peptide): no binding

Binder: B6
binding result [14]: binds | binding result [3]: no binding

Binder: B7
binding result [15]: no binding | EC50 [16]: ~333 nM
